FireProtDB (doi:10.1021/bi051692c)

B1: Band 3 anion transport protein, P02730 (parent)
chain: MEELQDDYEDMMEENLEQEEYEDPDIPESQMEEPAAHDTEATATDYHTTSHPGTHKVYVELQELVMDEKNQELRWMEAARWVQLEENLGENGAWGRPHLSHLTFWSLLELRRVFTKGTVLLDLQETSLAGVANQLLDRFIFEDQIRPQDREELLRALLLKHSHAGELEALGGVKPAVLTRSGDPSQPLLPQHSSLETQLFCEQGDGGTEGHSPSGILEKIPPDSEATLVLVGRADFLEQPVLGFVRLQEAAELEAVELPVPIRFLFVLLGPEAPHIDYTQLGRAAATLMSERVFRIDAYMAQSRGELLHSLEGFLDCSLVLPPTDAPSEQALLSLVPVQRELLRRRYQSSPAKPDSSFYKGLDLNGGPDDPLQQTGQLFGGLVRDIRRRYPYYLSDITDAFSPQVLAAVIFIYFAALSPAITFGGLLGEKTRNQMGVSELLISTAVQGILFALLGAQPLLVVGFSGPLLVFEEAFFSFCETNGLEYIVGRVWIGFWLILLVVLVVAFEGSFLVRFISRYTQEIFSFLISLIFIYETFSKLIKIFQDHPLQKTYNYNVLMVPKPQGPLPNTALLSLVLMAGTFFFAMMLRKFKNSSYFPGKLRRVIGDFGVPISILIMVLVDFFIQDTYTQKLSVPDGFKVSNSSARGWVIHPLGLRSEFPIWMMFASALPALLVFILIFLESQITTLIVSKPERKMVKGSGFHLDLLLVVGMGGVAALFGMPWLSATTVRSVTHANALTVMGKASTPGAAAQIQEVKEQRISGLLVAVLVGLSILMEPILSRIPLAVLFGIFLYMGVTSLSGIQLFDRILLLFKPPKYHPDVPYVKRVKTWRMHLFTGIQIICLAVLWVVKSTPASLALPFVLILTVPLRRVLLPLIFRNVELQCLDADDAKATFDEEEGRDEYDEVAMPV

Variants of: B1
Conditions: Homo sapiens, reversible: No, structure 1HYN, whole UniProt chain shown; for Tm / change of melting temperature, mutant - wild type (higher = more stable): Thermal, sodium phosphate 10 mM; for denaturant midpoint (higher = more stable): 24 °C, Urea, Fluorescence, sodium phosphate sodium borate 50 mM 50 mM, sodium chloride 70 mM
[1] = pH 7, CD, sodium fluoride 50 mM
[2] = pH 7.5, DSC, sodium chloride 50 mM

Row | Variant | Tm [1] | change of melting temperature, mutant - wild type (higher = more stable) [1] | Tm [2] | change of melting temperature, mutant - wild type (higher = more stable) [2] | denaturant midpoint (higher = more stable) (pH 7)
1 | K56E | 67.7 °C | -1.3 °C | 66.5 °C | 0.3 °C | –
2 | P327R | 64 °C | -5 °C | – | – | 4.56 M
3 | G130R | 68.7 °C | -0.3 °C | 65.5 °C | -0.7 °C | 4.85 M
4 | E40K | – | – | 64.9 °C | -1.3 °C | 4.73 M
